This passage reports FACS fluorescence intensity and OD450 nm results from patent US20250250357A1 (NANJING ZAIMING PHARMACEUTICAL, published 2025).

The target of test [1] is T1, human MSLN protein, endogenously expressed on Hela and OVCAR3 cells (human, UniProt Q13421 296-598).
T1 construct: whole, on cells; also called mesothelin
Description: FACS on OVCAR3 cells; antibody 0.00128 nM.

For test [2], the target named is T2, human MSLN-R3-his protein (human, UniProt Q13421 487-598).
T2 construct: also called hMSLN-R3-his; not shown: His tag
T2 sequence (Q13421 495-606): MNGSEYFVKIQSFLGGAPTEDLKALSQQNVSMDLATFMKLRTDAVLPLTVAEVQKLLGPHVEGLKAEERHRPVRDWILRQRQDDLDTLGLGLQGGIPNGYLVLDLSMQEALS
The experiment in a line: ELISA; antibody 0 nM (blank). For orientation: ELISA stands for enzyme-linked immunosorbent assay.

In test [3] the target is T3, human MSLN-FL-his protein (human, UniProt Q13421 296-580).
T3 construct: also called hMSLN-FL-his; human MSLN full-length protein; not shown: His tag
Description: ELISA; antibody 1 nM.

Test [4] concerns the target T4, human MSLN-R1-his protein (human, UniProt Q13421 296-390).
T4 construct: also called hMSLN-R1-his; human MSLN-R1 protein; not shown: His tag
T4 chain: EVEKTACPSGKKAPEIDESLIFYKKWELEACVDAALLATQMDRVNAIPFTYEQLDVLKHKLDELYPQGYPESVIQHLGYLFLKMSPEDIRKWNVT
The experiment in a line: ELISA; antibody 1 nM.

In test [5] the target is T5, human MSLN-R2-his protein (human, UniProt Q13421 391-486).
T5 construct: also called hMSLN-R2-his; not shown: His tag
T5 sequence (Q13421 other isoform, or with tags, fused parts or gaps): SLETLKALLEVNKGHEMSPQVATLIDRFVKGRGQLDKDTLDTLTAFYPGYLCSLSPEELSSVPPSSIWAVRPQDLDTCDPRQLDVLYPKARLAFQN
The experiment in a line: ELISA; antibody 1 nM.

The target of test [6] is T2, human MSLN-R3-his protein. Description: ELISA; antibody 1 nM.
For test [7], the target named is T1, human MSLN protein, endogenously …. Description: FACS on OVCAR3 cells; antibody 0.0064 nM.
The target of test [8] is T5, human MSLN-R2-his protein. Description: ELISA; antibody 0.1 nM.

T1 sequence (Q13421 other isoform, or with tags, fused parts or gaps): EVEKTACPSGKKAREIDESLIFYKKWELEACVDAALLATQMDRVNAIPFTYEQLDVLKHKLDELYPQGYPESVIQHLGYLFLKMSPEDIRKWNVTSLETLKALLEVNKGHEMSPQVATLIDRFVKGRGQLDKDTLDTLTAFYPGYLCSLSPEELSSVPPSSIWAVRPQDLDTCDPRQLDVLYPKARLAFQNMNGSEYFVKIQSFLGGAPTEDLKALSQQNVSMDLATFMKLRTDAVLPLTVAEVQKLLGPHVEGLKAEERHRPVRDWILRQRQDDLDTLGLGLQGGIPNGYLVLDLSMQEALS

B1: Tab107 (YP3, hIgG1) (antibody, V domains shown)
VH: QEQLVESGGGLVQPGASLTLTCTASGIDFSRYYMCWVRQAPGKGLEGIACIYIGGSGSTYYASWAKGRFTISKASSTTVTLQMTSLTAADTATYFCARGTNLNYIFRLWGPGTLVTVSS
VL: DVVMTQTPSPVSAAVGGTVTIKCQASQSINNGLAWYQQKPGQPPRLLIYSASNLESGVPSRFKGSGSGTEFTLTISDLECDDAATYYCQCIWDGNSYVNAFGGGTEVVVRT
notes: Control antibody; VH and VL recombined into human IgG1 CH and CL expression vectors; also called YP3 human IgG1 antibody
Regarding B1, the FACS fluorescence intensity was 76 in test [1] and 80 in test [7]. For the same molecule, the OD450 nm is 0.05 in test [2]; 1.74 in test [3]; 0.05 in test [4]; 0.05 in test [5]; 0.05 in test [6]; 0.04 in test [8].
